From patent EP1892250A2

Tests used:
[1] = biological target: α6β1 integrin on human cells (1064SK fibroblasts, endothelial cells) (human) (UniProt P23229); assay: cell-based or functional assay
[2] = biological target: αvβ3 integrin on human cells (human) (UniProt P06756); assay: cell-based or functional assay
Sequence of αvβ3 integrin on human cells (human) (P06756 31-1048, chain 1 of 2): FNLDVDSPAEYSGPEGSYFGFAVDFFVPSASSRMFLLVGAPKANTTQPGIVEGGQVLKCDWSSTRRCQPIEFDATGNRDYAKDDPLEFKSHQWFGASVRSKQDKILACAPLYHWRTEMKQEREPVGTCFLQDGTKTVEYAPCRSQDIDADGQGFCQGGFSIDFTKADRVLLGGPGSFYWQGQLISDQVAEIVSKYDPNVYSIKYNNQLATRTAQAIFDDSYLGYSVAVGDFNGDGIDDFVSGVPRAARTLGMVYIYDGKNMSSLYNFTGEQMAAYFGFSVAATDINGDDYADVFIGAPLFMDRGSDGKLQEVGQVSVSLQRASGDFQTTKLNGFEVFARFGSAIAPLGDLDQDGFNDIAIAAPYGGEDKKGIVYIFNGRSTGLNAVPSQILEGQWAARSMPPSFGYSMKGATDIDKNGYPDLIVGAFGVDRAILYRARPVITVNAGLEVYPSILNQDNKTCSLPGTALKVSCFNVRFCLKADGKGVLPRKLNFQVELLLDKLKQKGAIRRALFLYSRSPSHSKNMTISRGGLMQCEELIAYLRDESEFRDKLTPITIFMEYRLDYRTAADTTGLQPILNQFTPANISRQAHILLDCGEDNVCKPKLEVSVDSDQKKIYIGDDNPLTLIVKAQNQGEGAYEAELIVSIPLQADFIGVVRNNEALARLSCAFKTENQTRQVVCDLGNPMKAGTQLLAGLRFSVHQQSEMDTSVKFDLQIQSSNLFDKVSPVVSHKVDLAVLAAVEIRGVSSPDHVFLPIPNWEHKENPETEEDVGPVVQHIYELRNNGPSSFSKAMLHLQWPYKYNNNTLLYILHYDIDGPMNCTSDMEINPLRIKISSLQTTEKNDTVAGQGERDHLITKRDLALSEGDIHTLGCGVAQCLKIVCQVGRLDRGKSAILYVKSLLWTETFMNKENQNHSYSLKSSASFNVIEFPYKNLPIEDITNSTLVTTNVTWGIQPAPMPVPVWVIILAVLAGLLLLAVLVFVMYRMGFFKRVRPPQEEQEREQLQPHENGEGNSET
Sequence of αvβ3 integrin on human cells (human) (P05106 27-788, chain 2 of 2, further chain): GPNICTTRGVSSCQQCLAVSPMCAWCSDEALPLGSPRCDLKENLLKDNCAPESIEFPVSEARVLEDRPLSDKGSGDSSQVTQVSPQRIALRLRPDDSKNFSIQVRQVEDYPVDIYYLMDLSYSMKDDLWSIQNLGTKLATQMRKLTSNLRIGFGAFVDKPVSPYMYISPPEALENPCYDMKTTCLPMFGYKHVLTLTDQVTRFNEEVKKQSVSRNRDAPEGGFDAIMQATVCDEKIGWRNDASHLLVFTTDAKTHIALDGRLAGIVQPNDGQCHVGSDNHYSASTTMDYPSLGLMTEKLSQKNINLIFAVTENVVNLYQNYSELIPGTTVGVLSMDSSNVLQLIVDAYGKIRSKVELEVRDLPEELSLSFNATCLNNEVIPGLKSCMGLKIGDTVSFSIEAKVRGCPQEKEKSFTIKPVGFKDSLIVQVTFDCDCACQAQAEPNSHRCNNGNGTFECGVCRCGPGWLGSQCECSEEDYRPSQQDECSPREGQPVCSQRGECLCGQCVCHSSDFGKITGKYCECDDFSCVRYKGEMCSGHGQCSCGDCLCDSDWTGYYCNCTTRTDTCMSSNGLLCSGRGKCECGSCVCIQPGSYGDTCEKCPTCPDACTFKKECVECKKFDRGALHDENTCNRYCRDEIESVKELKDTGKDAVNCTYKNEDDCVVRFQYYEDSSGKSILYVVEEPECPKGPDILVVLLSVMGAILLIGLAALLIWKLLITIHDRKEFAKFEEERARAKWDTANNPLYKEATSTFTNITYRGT

Sequence of α6β1 integrin on human cells (1064SK fibroblasts, endothelial cells) (human) (P23229 24-1130, chain 1 of 2): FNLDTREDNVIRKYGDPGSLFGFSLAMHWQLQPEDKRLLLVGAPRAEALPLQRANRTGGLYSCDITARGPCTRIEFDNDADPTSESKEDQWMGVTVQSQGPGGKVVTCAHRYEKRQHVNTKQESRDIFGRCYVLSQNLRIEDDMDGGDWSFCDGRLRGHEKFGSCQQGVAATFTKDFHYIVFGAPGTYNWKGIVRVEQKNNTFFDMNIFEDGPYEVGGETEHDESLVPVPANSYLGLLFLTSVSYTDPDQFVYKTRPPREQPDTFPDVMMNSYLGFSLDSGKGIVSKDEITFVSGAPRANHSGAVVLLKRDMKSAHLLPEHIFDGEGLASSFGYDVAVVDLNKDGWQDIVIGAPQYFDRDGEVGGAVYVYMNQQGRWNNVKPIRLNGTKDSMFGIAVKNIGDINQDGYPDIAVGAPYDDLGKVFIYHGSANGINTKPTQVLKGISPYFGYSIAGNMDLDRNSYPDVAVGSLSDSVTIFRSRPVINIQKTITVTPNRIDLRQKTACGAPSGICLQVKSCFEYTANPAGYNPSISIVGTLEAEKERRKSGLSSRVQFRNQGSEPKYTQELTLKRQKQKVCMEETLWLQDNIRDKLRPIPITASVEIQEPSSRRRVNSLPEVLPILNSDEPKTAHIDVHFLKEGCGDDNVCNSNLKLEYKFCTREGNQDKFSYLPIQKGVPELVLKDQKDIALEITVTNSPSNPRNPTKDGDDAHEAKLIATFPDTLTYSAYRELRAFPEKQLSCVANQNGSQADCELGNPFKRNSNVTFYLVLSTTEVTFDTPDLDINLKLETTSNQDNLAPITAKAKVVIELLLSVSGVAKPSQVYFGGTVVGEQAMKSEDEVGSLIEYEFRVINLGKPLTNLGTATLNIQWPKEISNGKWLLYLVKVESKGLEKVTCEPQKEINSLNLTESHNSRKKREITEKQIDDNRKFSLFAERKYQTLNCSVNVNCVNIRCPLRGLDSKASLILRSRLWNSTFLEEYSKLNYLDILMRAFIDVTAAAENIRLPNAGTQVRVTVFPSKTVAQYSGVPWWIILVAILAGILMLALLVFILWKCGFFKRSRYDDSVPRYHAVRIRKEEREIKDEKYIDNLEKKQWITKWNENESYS
Sequence of α6β1 integrin on human cells (1064SK fibroblasts, endothelial cells) (human) (P05556 21-798, chain 2 of 2, further chain): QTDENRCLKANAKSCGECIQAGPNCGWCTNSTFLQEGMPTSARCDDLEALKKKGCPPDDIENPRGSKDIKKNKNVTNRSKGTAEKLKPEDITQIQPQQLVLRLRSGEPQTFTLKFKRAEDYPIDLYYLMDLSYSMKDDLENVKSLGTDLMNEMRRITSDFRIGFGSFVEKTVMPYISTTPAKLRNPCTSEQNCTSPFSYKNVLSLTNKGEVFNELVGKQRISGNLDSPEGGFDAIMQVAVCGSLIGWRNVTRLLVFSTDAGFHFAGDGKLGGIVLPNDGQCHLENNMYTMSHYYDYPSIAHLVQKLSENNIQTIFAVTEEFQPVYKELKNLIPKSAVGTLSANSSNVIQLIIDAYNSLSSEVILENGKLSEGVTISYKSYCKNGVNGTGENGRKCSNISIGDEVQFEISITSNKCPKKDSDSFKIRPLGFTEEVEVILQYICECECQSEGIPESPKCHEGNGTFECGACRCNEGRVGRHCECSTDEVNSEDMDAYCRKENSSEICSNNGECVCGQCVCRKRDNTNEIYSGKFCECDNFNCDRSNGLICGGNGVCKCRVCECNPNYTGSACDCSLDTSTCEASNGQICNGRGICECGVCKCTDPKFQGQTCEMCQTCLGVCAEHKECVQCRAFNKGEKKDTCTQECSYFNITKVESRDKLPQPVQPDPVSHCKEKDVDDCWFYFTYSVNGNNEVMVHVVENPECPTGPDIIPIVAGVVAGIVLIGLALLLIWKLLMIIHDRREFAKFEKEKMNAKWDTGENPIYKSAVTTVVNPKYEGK

1064SK fibroblast adhesion to Cyr61 (2 µg/ml), with anti-α6 antibody 20 µg/ml (A620) [1] | 1064SK fibroblast adhesion to Cyr61 (2 µg/ml), with anti-β1 antibody JB1A 50 µg/ml (A620) [1] | 1064SK fibroblast adhesion to Cyr61 (2 µg/ml), without anti-α6 antibody (A620) [1] | 1064SK fibroblast adhesion to Cyr61 (2 µg/ml), without anti-β1 antibody JB1A (A620) [1] | 1064SK fibroblast adhesion to Cyr61 (A620), antibody: None (control) [1] | 1064SK fibroblast adhesion to Cyr61 (A620), antibody: anti-α1 (40 µg/ml) [1] | 1064SK fibroblast adhesion to Cyr61 (A620), antibody: anti-α1 + anti-α2 + anti-α3 (40 µg/ml each) [1] | 1064SK fibroblast adhesion to Cyr61 (A620), antibody: anti-α2 (40 µg/ml) [1] | 1064SK fibroblast adhesion to Cyr61 (A620), antibody: anti-α3 (40 µg/ml) [1] | 1064SK fibroblast adhesion to Cyr61 (A620), antibody: anti-α4 (40 µg/ml) [1] | inhibition of 1064SK fibroblast adhesion to Cyr61 by anti-α6 antibody [1] | inhibition of 1064SK fibroblast adhesion to Cyr61 by anti-β1 antibody JB1A [1] | inhibition of 1064SK fibroblast adhesion to wild-type Cyr61 by anti-α6 antibody (20 µg/ml) [1] | HUVE cell adhesion to wild-type Cyr61 (5 µg/ml), relative binding capacity, pre-incubation: Anti-αvβ3 antibody (LM609, 40 µg/ml) [2] | HUVE cell adhesion to wild-type Cyr61 (5 µg/ml), relative binding capacity, pre-incubation: EDTA (2.5 mM) [2] | HUVE cell adhesion to wild-type Cyr61 (5 µg/ml), relative binding capacity, pre-incubation: None [2] | HUVE cell adhesion to wild-type Cyr61 (5 µg/ml), relative binding capacity, pre-incubation: RGD peptide (1 mM) [2] | 1064SK fibroblast adhesion to laminin (5 µg/ml), with anti-α6 antibody 20 µg/ml (A620) [1] | 1064SK fibroblast adhesion to laminin (5 µg/ml), without anti-α6 antibody (A620) [1] | inhibition of 1064SK fibroblast adhesion to laminin by anti-α6 antibody [1] | Substance
0.08 A620 | 0.14 A620 | 0.53 A620 | 0.53 A620 | 0.58 A620 | 0.54 A620 | 0.56 A620 | 0.6 A620 | 0.55 A620 | 0.56 A620 | > 80% | 75% | 78% | 42% | 22% | 100% | 50% | – | – | – | human Cyr61 (from UniProt O00622 25-381) (ligand)
– | – | – | – | – | – | – | – | – | – | – | – | – | – | – | – | – | 0.48 A620 | 0.62 A620 | 22% | mouse laminin (ligand)
